Experimental data taken from patent publication US20110059888A1.

Target: human OT7T175 (metastin receptor) (human) (UniProt Q969F8)
Test: cell-based or functional assay

Chain of UniProt Q969F8 (Q969F8 whole entry L364H): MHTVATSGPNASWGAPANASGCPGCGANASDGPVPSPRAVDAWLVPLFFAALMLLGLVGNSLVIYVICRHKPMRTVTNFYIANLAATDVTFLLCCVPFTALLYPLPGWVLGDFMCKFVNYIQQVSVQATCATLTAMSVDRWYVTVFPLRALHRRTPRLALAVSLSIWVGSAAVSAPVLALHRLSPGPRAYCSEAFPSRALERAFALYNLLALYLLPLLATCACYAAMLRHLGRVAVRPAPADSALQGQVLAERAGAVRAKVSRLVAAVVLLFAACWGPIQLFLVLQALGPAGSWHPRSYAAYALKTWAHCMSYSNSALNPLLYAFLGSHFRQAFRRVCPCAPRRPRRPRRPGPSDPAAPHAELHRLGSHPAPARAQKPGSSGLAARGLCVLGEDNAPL

des(1)-Ac-[D-Tyr2,Hyp3,Alb4,Thr5,Cha6,Gly7Ψ((E)CH═CH)Leu8,Trp10]MS10 (peptide)
Specific Activity (EC50 of test compound based on EC50 of Metastin (45-54); intracellular calcium, FLIPR) (ratio to EC50 of Metastin (45-54)): 0.5

des(1)-Ac-[D-Tyr2,Hyp3,Thr5,Gly7Ψ((E)CH═CH)Leu8,Trp10]MS10 (peptide)
Specific Activity (EC50 of test compound based on EC50 of Metastin (45-54); intracellular calcium, FLIPR) (ratio to EC50 of Metastin (45-54)): 0.4

des(1)-Ac-[D-Tyr2,Hyp3,Thr5,Aib7,Arg(Me)9,Trp10]MS10 (peptide)
Specific Activity (EC50 of test compound based on EC50 of Metastin (45-54); intracellular calcium, FLIPR) (ratio to EC50 of Metastin (45-54)): 1.5

des(1)-Ac-[D-Tyr2,Hyp3,Thr5,Cha6,Nva8,Arg(Me)9,Trp10]MS10 (peptide)
Specific Activity (EC50 of test compound based on EC50 of Metastin (45-54); intracellular calcium, FLIPR) (ratio to EC50 of Metastin (45-54)): 0.5

des(1)-Ac-[D-Tyr2,Hyp3,Thr5,Cha6,Nle8,Arg(Me)9,Trp10]MS10 (peptide)
Specific Activity (EC50 of test compound based on EC50 of Metastin (45-54); intracellular calcium, FLIPR) (ratio to EC50 of Metastin (45-54)): 0.6

des(1)-Ac-[D-Tyr2,Pro(4F)3,Thr5,Cha6,Ala(cPr)8,Arg(Me)9,Trp10]MS10 (peptide)
Specific Activity (EC50 of test compound based on EC50 of Metastin (45-54); intracellular calcium, FLIPR) (ratio to EC50 of Metastin (45-54)): 0.4

des(1)-Ac-[D-Tyr2,Hyp3,Thr5,Cha6,Arg(Me)9,Trp10]MS10 (peptide)
Specific Activity (EC50 of test compound based on EC50 of Metastin (45-54); intracellular calcium, FLIPR) (ratio to EC50 of Metastin (45-54)): 0.3

des(1)-Ac-[D-Tyr2,Hyp3,Thr5,Cha6,Gly7Ψ((E)CH═CH)Leu8,Trp10]MS10 (peptide)
Specific Activity (EC50 of test compound based on EC50 of Metastin (45-54); intracellular calcium, FLIPR) (ratio to EC50 of Metastin (45-54)): 0.6

des(1)-Ac-[D-Tyr2,Hyp3,Thr5,Cha6,Ser(Me)8,Arg(Me)9,Trp10]MS10 (peptide)
Specific Activity (EC50 of test compound based on EC50 of Metastin (45-54); intracellular calcium, FLIPR) (ratio to EC50 of Metastin (45-54)): 0.5

des(1)-Ac-[D-Tyr2,Hyp3,Thr5,Ser(Me)8,Arg(Me)9,Trp10]MS10 (peptide)
Specific Activity (EC50 of test compound based on EC50 of Metastin (45-54); intracellular calcium, FLIPR) (ratio to EC50 of Metastin (45-54)): 0.8

des(1)-Ac-[D-Tyr2,Hyp3,Thr5,Cha6,Leu(Me)8,Arg(Me)9,Trp10]MS10 (peptide)
Specific Activity (EC50 of test compound based on EC50 of Metastin (45-54); intracellular calcium, FLIPR) (ratio to EC50 of Metastin (45-54)): 1.4

des(1)-Ac-[D-Tyr2,Glu3,Thr5,Cha6,Ser(Me)8,Arg(Me)9,Trp10]MS10 (peptide)
Specific Activity (EC50 of test compound based on EC50 of Metastin (45-54); intracellular calcium, FLIPR) (ratio to EC50 of Metastin (45-54)): 0.5

des(1)-Ac-[D-Tyr2,Hyp3,Thr5,Nal(2)6,Arg(Me)9,Trp10]MS10 (peptide)
Specific Activity (EC50 of test compound based on EC50 of Metastin (45-54); intracellular calcium, FLIPR) (ratio to EC50 of Metastin (45-54)): 1

des(1)-Ac-[D-Tyr2,Hyp3,Thr5,Cha6,Gly7Ψ(CH2S)Leu8,Arg(Me)9,Trp10]MS10 (peptide)
Specific Activity (EC50 of test compound based on EC50 of Metastin (45-54); intracellular calcium, FLIPR) (ratio to EC50 of Metastin (45-54)): 1.7

des(1)-Ac-[D-Tyr2,Glu3,Thr5,Cha6,Nva8,Arg(Me)9,Trp10]MS10 (peptide)
Specific Activity (EC50 of test compound based on EC50 of Metastin (45-54); intracellular calcium, FLIPR) (ratio to EC50 of Metastin (45-54)): 0.4

des(1)-Ac-[D-Tyr2,Hyp3,Thr5,Phe6Ψ(CH2CH2)AzaGly7,Arg(Me)9,Trp10]MS10 (peptide)
Specific Activity (EC50 of test compound based on EC50 of Metastin (45-54); intracellular calcium, FLIPR) (ratio to EC50 of Metastin (45-54)): 0.6

des(1)-Ac-[D-Tyr2,Hyp3,Thr5,Nva8,Arg(Me)9,Trp10]MS10 (peptide)
Specific Activity (EC50 of test compound based on EC50 of Metastin (45-54); intracellular calcium, FLIPR) (ratio to EC50 of Metastin (45-54)): 0.7

des(1)-Ac-[D-Tyr2,Hyp3,Thr5,Cha6,Ala7,Arg(Me)9,Trp10]MS10 (peptide)
Specific Activity (EC50 of test compound based on EC50 of Metastin (45-54); intracellular calcium, FLIPR) (ratio to EC50 of Metastin (45-54)): 0.5
